According to publication PMC11096372:

Columns and labels:
[1] = target: Cas7b, backbone subunit of the Synechocystis sp. PCC 6714 type I-B Cascade (Synechocystis sp. PCC 6714); experiment: cryo-EM structure; SEC-purified Cascade with crRNA and a 59-bp ATG-PAM dsDNA target; full R-loop (higher than 3.6 Å) and partial R-loop (3.8 Å) states
[2] = target: Cas11b, small subunit of the Synechocystis sp. PCC 6714 type I-B Cascade (Synechocystis sp. PCC 6714); experiment: as above

Cas7b, backbone subunit of the Synechocystis sp. PCC 6714 type I-B Cascade (natural protein)
stoichiometry N [1]: 7

Cas11b, small subunit of the Synechocystis sp. PCC 6714 type I-B Cascade (natural protein)
stoichiometry N [2]: 3
